Data published in paper PMC3328385 (The Journal of Cell Biology, 2012).

Tests used:
[1] = target: t-SNAREs: syntaxin-1A/SNAP-25B, coexpressed, reconstituted in liposomes or supported bilayers (rat | mouse, UniProt P32851;P60879); experiment: liposome coflotation
native gel or EMSA = target: the molecule itself; experiment: native gel or EMSA

t-SNAREs: syntaxin-1A/SNAP-25B, coexpressed, reconstituted in liposomes or supported bilayers, sequence (P32851 whole entry, chain 1 of 2): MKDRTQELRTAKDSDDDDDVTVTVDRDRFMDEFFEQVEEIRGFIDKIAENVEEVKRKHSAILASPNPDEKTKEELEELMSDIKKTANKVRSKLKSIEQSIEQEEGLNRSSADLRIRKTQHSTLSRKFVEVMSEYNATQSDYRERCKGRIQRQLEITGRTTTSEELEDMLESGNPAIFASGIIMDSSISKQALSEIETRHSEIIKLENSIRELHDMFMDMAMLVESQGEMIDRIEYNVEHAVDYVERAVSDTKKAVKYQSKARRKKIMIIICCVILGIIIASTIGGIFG
t-SNAREs: syntaxin-1A/SNAP-25B, coexpressed, reconstituted in liposomes or supported bilayers, sequence (P60879 whole entry, chain 2 of 2): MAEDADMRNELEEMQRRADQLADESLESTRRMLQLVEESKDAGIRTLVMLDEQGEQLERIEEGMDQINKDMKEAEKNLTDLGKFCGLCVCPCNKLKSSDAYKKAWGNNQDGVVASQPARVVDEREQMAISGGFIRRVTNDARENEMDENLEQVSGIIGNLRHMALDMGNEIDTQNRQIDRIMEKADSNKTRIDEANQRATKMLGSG

B1: Munc13-4 (wild type, His6-tagged human Munc13-4) (natural protein)
chain: MATLLSHPQQRPPFLRQAIKIRRRRVRDLQDPPPQMAPEIQPPSHHFSPEQRALLYEDALYTVLHRLGHPEPNHVTEASELLRYLQEAFHVEPEEHQQTLQRVRELEKPIFCLKATVKQAKGILGKDVSGFSDPYCLLGIEQGVGVPGGSPGSRHRQKAVVRHTIPEEETHRTQVITQTLNPVWDETFILEFEDITNASFHLDMWDLDTVESVRQKLGELTDLHGLRRIFKEARKDKGQDDFLGNVVLRLQDLRCREDQWYPLEPRTETYPDRGQCHLQFQLIHKRRATSASRSQPSYTVHLHLLQQLVSHEVTQHEAGSTSWDGSLSPQAATVLFLHATQKDLSDFHQSMAQWLAYSRLYQSLEFPSSCLLHPITSIEYQWIQGRLKAEQQEELAASFSSLLTYGLSLIRRFRSVFPLSVSDSPARLQSLLRVLVQMCKMKAFGELCPNTAPLPQLVTEALQTGTTEWFHLKQQHHQPMVQGIPEAGKALLGLVQDVIGDLHQCQRTWDKIFHNTLKIHLFSMAFRELQWLVAKRVQDHTTVVGDVVSPEMGESLFQLYISLKELCQLRMSSSERDGVLALDNFHRWFQPAIPSWLQKTYNEALARVQRAVQMDELVPLGELTKHSTSAVDLSTCFAQISHTARQLDWPDPEEAFMITVKFVEDTCRLALVYCSLIKARARELSSGQKDQGQAANMLCVVVNDMEQLRLVIGKLPAQLAWEALEQRVGAVLEQGQLQNTLHAQLQSALAGLGHEIRTGVRTLAEQLEVGIAKHIQKLVGVRESVLPEDAILPLMKFLEVELCYMNTNLVQENFSSLLTLLWTHTLTVLVEAAASQRSSSLASNRLKIALQNLEICFHAEGCGLPPKALHTATFQALQRDLELQAASSRELIRKYFCSRIQQQAETTSEELGAVTVKASYRASEQKLRVELLSASSLLPLDSNGSSDPFVQLTLEPRHEFPELAARETQKHKKDLHPLFDETFEFLVPAEPCRKAGACLLLTVLDYDTLGADDLEGEAFLPLREVPGLSGSEEPGEVPQTRLPLTYPAPNGDPILQLLEGRKGDREAQVFVRLRRHRAKQASQHALRPAP
- fold increase in binding with Ca2+ against no Ca2+ [1]: 2.5 fold

B2: C2B* Munc13-4 (D941N/D947N) (natural protein)
chain: MATLLSHPQQRPPFLRQAIKIRRRRVRDLQDPPPQMAPEIQPPSHHFSPEQRALLYEDALYTVLHRLGHPEPNHVTEASELLRYLQEAFHVEPEEHQQTLQRVRELEKPIFCLKATVKQAKGILGKDVSGFSDPYCLLGIEQGVGVPGGSPGSRHRQKAVVRHTIPEEETHRTQVITQTLNPVWDETFILEFEDITNASFHLDMWDLDTVESVRQKLGELTDLHGLRRIFKEARKDKGQDDFLGNVVLRLQDLRCREDQWYPLEPRTETYPDRGQCHLQFQLIHKRRATSASRSQPSYTVHLHLLQQLVSHEVTQHEAGSTSWDGSLSPQAATVLFLHATQKDLSDFHQSMAQWLAYSRLYQSLEFPSSCLLHPITSIEYQWIQGRLKAEQQEELAASFSSLLTYGLSLIRRFRSVFPLSVSDSPARLQSLLRVLVQMCKMKAFGELCPNTAPLPQLVTEALQTGTTEWFHLKQQHHQPMVQGIPEAGKALLGLVQDVIGDLHQCQRTWDKIFHNTLKIHLFSMAFRELQWLVAKRVQDHTTVVGDVVSPEMGESLFQLYISLKELCQLRMSSSERDGVLALDNFHRWFQPAIPSWLQKTYNEALARVQRAVQMDELVPLGELTKHSTSAVDLSTCFAQISHTARQLDWPDPEEAFMITVKFVEDTCRLALVYCSLIKARARELSSGQKDQGQAANMLCVVVNDMEQLRLVIGKLPAQLAWEALEQRVGAVLEQGQLQNTLHAQLQSALAGLGHEIRTGVRTLAEQLEVGIAKHIQKLVGVRESVLPEDAILPLMKFLEVELCYMNTNLVQENFSSLLTLLWTHTLTVLVEAAASQRSSSLASNRLKIALQNLEICFHAEGCGLPPKALHTATFQALQRDLELQAASSRELIRKYFCSRIQQQAETTSEELGAVTVKASYRASEQKLRVELLSASSLLPLNSNGSSNPFVQLTLEPRHEFPELAARETQKHKKDLHPLFDETFEFLVPAEPCRKAGACLLLTVLDYDTLGADDLEGEAFLPLREVPGLSGSEEPGEVPQTRLPLTYPAPNGDPILQLLEGRKGDREAQVFVRLRRHRAKQASQHALRPAP
- binding result (native gel or EMSA): binds
- binding result [1]: binds

B3: C2A*B* Munc13-4 (D127N/D133N/D941N/D947N) (natural protein)
chain: MATLLSHPQQRPPFLRQAIKIRRRRVRDLQDPPPQMAPEIQPPSHHFSPEQRALLYEDALYTVLHRLGHPEPNHVTEASELLRYLQEAFHVEPEEHQQTLQRVRELEKPIFCLKATVKQAKGILGKNVSGFSNPYCLLGIEQGVGVPGGSPGSRHRQKAVVRHTIPEEETHRTQVITQTLNPVWDETFILEFEDITNASFHLDMWDLDTVESVRQKLGELTDLHGLRRIFKEARKDKGQDDFLGNVVLRLQDLRCREDQWYPLEPRTETYPDRGQCHLQFQLIHKRRATSASRSQPSYTVHLHLLQQLVSHEVTQHEAGSTSWDGSLSPQAATVLFLHATQKDLSDFHQSMAQWLAYSRLYQSLEFPSSCLLHPITSIEYQWIQGRLKAEQQEELAASFSSLLTYGLSLIRRFRSVFPLSVSDSPARLQSLLRVLVQMCKMKAFGELCPNTAPLPQLVTEALQTGTTEWFHLKQQHHQPMVQGIPEAGKALLGLVQDVIGDLHQCQRTWDKIFHNTLKIHLFSMAFRELQWLVAKRVQDHTTVVGDVVSPEMGESLFQLYISLKELCQLRMSSSERDGVLALDNFHRWFQPAIPSWLQKTYNEALARVQRAVQMDELVPLGELTKHSTSAVDLSTCFAQISHTARQLDWPDPEEAFMITVKFVEDTCRLALVYCSLIKARARELSSGQKDQGQAANMLCVVVNDMEQLRLVIGKLPAQLAWEALEQRVGAVLEQGQLQNTLHAQLQSALAGLGHEIRTGVRTLAEQLEVGIAKHIQKLVGVRESVLPEDAILPLMKFLEVELCYMNTNLVQENFSSLLTLLWTHTLTVLVEAAASQRSSSLASNRLKIALQNLEICFHAEGCGLPPKALHTATFQALQRDLELQAASSRELIRKYFCSRIQQQAETTSEELGAVTVKASYRASEQKLRVELLSASSLLPLNSNGSSNPFVQLTLEPRHEFPELAARETQKHKKDLHPLFDETFEFLVPAEPCRKAGACLLLTVLDYDTLGADDLEGEAFLPLREVPGLSGSEEPGEVPQTRLPLTYPAPNGDPILQLLEGRKGDREAQVFVRLRRHRAKQASQHALRPAP
- binding result (native gel or EMSA): binds
- binding result [1]: binds

B4: C2A* Munc13-4 (D127N/D133N) (natural protein)
chain: MATLLSHPQQRPPFLRQAIKIRRRRVRDLQDPPPQMAPEIQPPSHHFSPEQRALLYEDALYTVLHRLGHPEPNHVTEASELLRYLQEAFHVEPEEHQQTLQRVRELEKPIFCLKATVKQAKGILGKNVSGFSNPYCLLGIEQGVGVPGGSPGSRHRQKAVVRHTIPEEETHRTQVITQTLNPVWDETFILEFEDITNASFHLDMWDLDTVESVRQKLGELTDLHGLRRIFKEARKDKGQDDFLGNVVLRLQDLRCREDQWYPLEPRTETYPDRGQCHLQFQLIHKRRATSASRSQPSYTVHLHLLQQLVSHEVTQHEAGSTSWDGSLSPQAATVLFLHATQKDLSDFHQSMAQWLAYSRLYQSLEFPSSCLLHPITSIEYQWIQGRLKAEQQEELAASFSSLLTYGLSLIRRFRSVFPLSVSDSPARLQSLLRVLVQMCKMKAFGELCPNTAPLPQLVTEALQTGTTEWFHLKQQHHQPMVQGIPEAGKALLGLVQDVIGDLHQCQRTWDKIFHNTLKIHLFSMAFRELQWLVAKRVQDHTTVVGDVVSPEMGESLFQLYISLKELCQLRMSSSERDGVLALDNFHRWFQPAIPSWLQKTYNEALARVQRAVQMDELVPLGELTKHSTSAVDLSTCFAQISHTARQLDWPDPEEAFMITVKFVEDTCRLALVYCSLIKARARELSSGQKDQGQAANMLCVVVNDMEQLRLVIGKLPAQLAWEALEQRVGAVLEQGQLQNTLHAQLQSALAGLGHEIRTGVRTLAEQLEVGIAKHIQKLVGVRESVLPEDAILPLMKFLEVELCYMNTNLVQENFSSLLTLLWTHTLTVLVEAAASQRSSSLASNRLKIALQNLEICFHAEGCGLPPKALHTATFQALQRDLELQAASSRELIRKYFCSRIQQQAETTSEELGAVTVKASYRASEQKLRVELLSASSLLPLDSNGSSDPFVQLTLEPRHEFPELAARETQKHKKDLHPLFDETFEFLVPAEPCRKAGACLLLTVLDYDTLGADDLEGEAFLPLREVPGLSGSEEPGEVPQTRLPLTYPAPNGDPILQLLEGRKGDREAQVFVRLRRHRAKQASQHALRPAP
- binding result (native gel or EMSA): binds
- binding result [1]: binds
